Experiment [1] has as its target T1, Csk L-SH2 domain (A73–A178), oxidized form (human, UniProt P41240 73-178, disulfide bond C122–C164).
T1 construct: C-terminal Src kinase (Csk), human, SH2 domain with part of the SH3-SH2 linker, residues A73-A178; intramolecular disulfide bond between C122 and C164; Same polypeptide as m1, differing only in the C122–C164 disulfide bond; also called oxidized SH2; oxidized L-SH2; source: E. coli BL21 (DE3) RIL, purified (chitin beads, intein cleaved with DTT, Mono Q); oxidized by exposure to air for about a …
T1 sequence (looked up): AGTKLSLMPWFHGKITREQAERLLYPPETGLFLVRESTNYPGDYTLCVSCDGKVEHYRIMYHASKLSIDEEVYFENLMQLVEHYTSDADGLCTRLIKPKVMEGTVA
The experiment is described as follows: other fluorescence titration; intrinsic tryptophan fluorescence of L-SH2 (typically 5 μmol/L) titrated with Cbp peptide; 25 °C, 3 mL of 50 mmol/L Tris-HCl pH 7.5; excitation 288 nm, emission 320 nm. As to conditions: both partners purified.

For experiment [2], the target named is T2, Csk L-SH2 domain (A73–A178), reduced form (human, UniProt P41240 73-178).
T2 construct: C-terminal Src kinase (Csk), human, SH2 domain with part of the SH3-SH2 linker, residues A73-A178; C122 and C164 as free thiols; Cloned into pTWIN1 as described in Liu et al. 2009; 15N/13C-labelled for the NMR experiments; PDB 3EAC is the oxidized form of the same construct; also called reduced SH2; reduced L-SH2; source: E. coli BL21 (DE3) RIL, purified (chitin beads, intein cleaved with 50 …)
T2 sequence (looked up): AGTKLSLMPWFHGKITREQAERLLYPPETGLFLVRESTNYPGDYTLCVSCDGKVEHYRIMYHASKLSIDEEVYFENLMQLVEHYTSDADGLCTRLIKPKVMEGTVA
Described as above. As to conditions: both partners purified.

Square brackets hold non-standard residues; d marks the D form. Ends that are not written are not given here. pY = N[C@@H](Cc1ccc(OP(=O)(O)O)cc1)C(=O)O

The term Kd denotes a measure of binding affinity in units of concentration. Low values mean higher affinity, high ones lower affinity.

B1: Cbp phosphopeptide ISAMpYSSVNK (peptide)
peptide: ISAM[pY]SSVNK
notes: also called Cbp peptide; Cbp-phosphorylated peptide; source: synthetic peptide (GenScript, solid-phase synthesis)
For the molecule B1, the figures for the equilibrium dissociation constant (Kd) in experiment [1] and in experiment [2] were 990 ± 80 nM and 520 ± 50 nM, respectively.

Source of the values: PMC5071372, “Combining biophysical methods to analyze the disulfide bond in SH2 domain of C-terminal Src kinase” (Biophysics Reports, 2016).
